Where no end group is shown, it is not given here. The star is where a group is joined. Cam = NC(=O)C*
B1: synthesized albumin peptide 2606 KLDELRDEGKAS (peptide)
peptide: KLDELRDEGKAS
notes: Synthetic (CSBio); also called E5K peptide 2606
B2: synthesized albumin peptide 2605 NEETFLKKYLYE (peptide)
peptide: NEETFLKKYLYE
notes: Synthetic (CSBio); also called E5K peptide 2605

The molecules below were run against artificial cell surface (ACS): biotinylated cell surface proteins from human mononuclear blood cells coupled to streptavidin-sepharose (assay: ACS affinity column adsorption of tryptic dHSA peptides, MALDI-TOF ms; second of two lines for this peptide).
QEPERNEC(Cam)FLQHK [HSA tryptic peptide residues 118-130 …] was tested, and the Per cent adsorbed (per cent adsorbed, printed as fraction) was 0.18.

These molecules were tested against artificial cell surface (ACS): biotinylated cell surface proteins from human mononuclear blood cells coupled to streptavidin-sepharose (assay: ACS affinity column adsorption of tryptic dHSA peptides, MALDI-TOF ms; first of two lines for this peptide).
With QEPERNEC(Cam)FLQHK [HSA tryptic peptide residues 118-130 …] the Per cent adsorbed (per cent adsorbed, printed as fraction) was 0.26.

The molecules below were run against T1, LFA-1 (CD11a) on immune cells (human, UniProt P20701 26-1170; P05107 23-769) (assay: effect of peptide pre-incubation on HI111 staining of LFA-1 on PBMC and THP-1 cytospins).
T1 construct: whole, on cells; On acetone-fixed cytospin preparations of human PBMC or THP-1 cells; also called β2-integrin
T1 sequence (P20701 26-1170, chain 1 of 2): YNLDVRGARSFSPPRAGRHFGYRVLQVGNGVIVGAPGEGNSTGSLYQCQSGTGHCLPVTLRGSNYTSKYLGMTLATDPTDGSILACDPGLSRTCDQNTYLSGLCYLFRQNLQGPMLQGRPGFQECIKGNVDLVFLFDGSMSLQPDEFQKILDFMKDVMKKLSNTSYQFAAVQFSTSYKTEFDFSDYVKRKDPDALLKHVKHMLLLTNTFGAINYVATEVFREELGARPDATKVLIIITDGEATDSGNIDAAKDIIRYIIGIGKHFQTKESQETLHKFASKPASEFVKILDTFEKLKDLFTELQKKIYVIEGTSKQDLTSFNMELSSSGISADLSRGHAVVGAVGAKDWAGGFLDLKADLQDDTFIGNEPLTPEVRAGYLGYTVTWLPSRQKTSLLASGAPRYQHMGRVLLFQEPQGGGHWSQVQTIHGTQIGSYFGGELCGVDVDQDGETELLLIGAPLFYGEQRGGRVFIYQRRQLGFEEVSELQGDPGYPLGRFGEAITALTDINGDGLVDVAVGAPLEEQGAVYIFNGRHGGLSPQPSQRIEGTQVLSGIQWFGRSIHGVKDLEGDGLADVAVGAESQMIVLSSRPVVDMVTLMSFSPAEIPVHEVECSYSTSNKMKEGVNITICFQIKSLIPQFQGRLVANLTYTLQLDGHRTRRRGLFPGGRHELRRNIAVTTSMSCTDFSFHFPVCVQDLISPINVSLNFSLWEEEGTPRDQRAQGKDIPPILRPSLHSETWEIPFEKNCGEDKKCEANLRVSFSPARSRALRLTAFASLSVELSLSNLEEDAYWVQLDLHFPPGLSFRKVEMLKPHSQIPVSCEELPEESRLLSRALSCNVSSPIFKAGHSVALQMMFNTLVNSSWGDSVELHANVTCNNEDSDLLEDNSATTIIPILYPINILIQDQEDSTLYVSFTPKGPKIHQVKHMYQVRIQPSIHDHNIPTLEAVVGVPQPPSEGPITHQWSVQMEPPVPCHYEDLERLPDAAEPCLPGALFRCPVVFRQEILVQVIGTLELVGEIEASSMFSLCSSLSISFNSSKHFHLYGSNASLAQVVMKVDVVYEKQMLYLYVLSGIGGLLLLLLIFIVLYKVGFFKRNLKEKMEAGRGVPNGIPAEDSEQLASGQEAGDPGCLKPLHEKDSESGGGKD
T1 sequence (P05107 23-769, chain 2 of 2): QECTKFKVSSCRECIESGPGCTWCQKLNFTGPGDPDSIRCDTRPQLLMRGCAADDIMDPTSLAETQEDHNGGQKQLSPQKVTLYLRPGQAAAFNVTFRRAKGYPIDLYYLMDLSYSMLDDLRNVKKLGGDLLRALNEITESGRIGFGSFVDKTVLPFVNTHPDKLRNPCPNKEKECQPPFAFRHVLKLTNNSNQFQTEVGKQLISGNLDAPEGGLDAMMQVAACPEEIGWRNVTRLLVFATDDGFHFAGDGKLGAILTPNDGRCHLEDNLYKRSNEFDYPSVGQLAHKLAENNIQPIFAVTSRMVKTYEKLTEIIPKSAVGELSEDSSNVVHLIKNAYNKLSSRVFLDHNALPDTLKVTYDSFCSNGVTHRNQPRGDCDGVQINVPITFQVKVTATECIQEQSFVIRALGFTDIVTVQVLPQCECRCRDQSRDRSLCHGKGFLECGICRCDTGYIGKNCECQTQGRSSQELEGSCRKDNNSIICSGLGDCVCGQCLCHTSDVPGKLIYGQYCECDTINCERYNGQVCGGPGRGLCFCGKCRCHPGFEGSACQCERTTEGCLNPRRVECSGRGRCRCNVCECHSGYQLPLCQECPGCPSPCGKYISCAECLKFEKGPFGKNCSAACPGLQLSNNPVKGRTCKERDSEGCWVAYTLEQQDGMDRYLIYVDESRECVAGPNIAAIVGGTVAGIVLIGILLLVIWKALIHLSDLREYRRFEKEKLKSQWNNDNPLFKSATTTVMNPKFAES
B1: binds.

What follows are molecules tested against T1, LFA-1 (CD11a) on immune cells (assay: inferred from modulation of HI111 staining of LFA-1 on mononuclear blood cells).
VFDEFKPLVEEPQNLIK (Synthetic (CSBio); also called 80) [synthesized albumin peptide 3028 VFDEFKPLVEEPQNLIK]: binds.

These molecules were tested against artificial cell surface (ACS): biotinylated cell surface proteins from human mononuclear blood cells coupled to streptavidin-sepharose (assay: ACS affinity column adsorption of ASP-N dHSA peptides (700-3600 Da), MALDI-TOF ms).
DSISSKLKEC(Cam)C(Cam)EKPLLEKSHC(Cam)IAEVEN [HSA ASP-N peptide residues 293-319 …] showed a Per cent adsorbed (per cent adsorbed, printed as fraction) of 0.65. DRVTKC(Cam)C(Cam)TESLVNRRPC(Cam)FSALEV [HSA ASP-N peptide residues 495-517 …] gave a Per cent adsorbed (per cent adsorbed, printed as fraction) of 0.87. DKLC(Cam)TVATLRETYGEM [HSA ASP-N peptide residues 96-112 …] was tested, and the Per cent adsorbed (per cent adsorbed, printed as fraction) was 0.65. DHVKLVNEVTEFAKTC(Cam)VA [HSA ASP-N peptide residues 62-79 …] was tested, and the Per cent adsorbed (per cent adsorbed, printed as fraction) was 1. Molecule DDKETC(Cam)FAEEGKKLVAASQAALGL [HSA ASP-N peptide residues 586-609 …] has a Per cent adsorbed (per cent adsorbed, printed as fraction) of 1. For DETYVPKEFNAETFTHA [HSA ASP-N peptide residues 518-535 …], the Per cent adsorbed (per cent adsorbed, printed as fraction) was 0.86.

These molecules were tested against artificial cell surface (ACS): biotinylated cell surface proteins from human mononuclear blood cells coupled to streptavidin-sepharose (assay: ACS affinity column adsorption of ASP-N dHSA peptides (3200-9000 Da), MALDI-TOF ms).
HSA ASP-N peptide residues 96-130 … showed a Per cent adsorbed (per cent adsorbed, printed as fraction) of 1. YSVVLLLRLAKTYETTLEKC(Cam)C(Cam)AAADPHEC(Cam)YAKVF [HSA ASP-N peptide residues 364-398 …] showed a Per cent adsorbed (per cent adsorbed, printed as fraction) of 1. LGEENFKALVLIAFAQYLQQC(Cam)PFEDHVKLVNEVTEFAKTC(Cam)VA [HSA ASP-N peptide residues 37-79 …] gave a Per cent adsorbed (per cent adsorbed, printed as fraction) of 1. IC(Cam)TLSEKERQIKKQTALVELVKHKPKATKEQLKAVM [HSA ASP-N peptide residues 536-572 …] showed a Per cent adsorbed (per cent adsorbed, printed as fraction) of 1. Molecule LAKYIC(Cam)ENQDSISSKLKEC(Cam)C(Cam)EKPLLEKSHC(Cam)IAEVEN [HSA ASP-N peptide residues 283-319 …] has a Per cent adsorbed (per cent adsorbed, printed as fraction) of 1. VFLGMFLYEYARRHPDYSVVLLLRLAKTYETTLEKC(Cam)C(Cam)AAA [HSA ASP-N peptide residues 348-388 …] gave a Per cent adsorbed (per cent adsorbed, printed as fraction) of 1. Molecule YLSVVLNQLC(Cam)VLHEKTPVSDRVTKC(Cam)C(Cam)TESLVNRRPC(Cam)FSALEV [HSA ASP-N peptide residues 475-517 …] has a Per cent adsorbed (per cent adsorbed, printed as fraction) of 0.37. RVTKC(Cam)C(Cam)TESLVNRRPC(Cam)FSALEVDETYVPKEFNAETFTFHA [HSA ASP-N peptide residues 495-535 …] showed a Per cent adsorbed (per cent adsorbed, printed as fraction) of 1.

The molecules below were run against T1, LFA-1 (CD11a) on immune cells (assay: effect of peptide pre-incubation on HI111 staining of LFA-1 on PBMC cytospins).
B2: binds.

These molecules were tested against artificial cell surface (ACS): biotinylated cell surface proteins from human mononuclear blood cells coupled to streptavidin-sepharose (assay: ACS affinity column adsorption of tryptic dHSA peptides, MALDI-TOF ms).
For HSA tryptic peptide residues 438-452 …, the Per cent adsorbed (per cent adsorbed, printed as fraction) was 0.64. HSA tryptic peptide residues 439-452 … was tested, and the Per cent adsorbed (per cent adsorbed, printed as fraction) was 0.59. With YKAAFTEC(Cam)C(Cam)QAADK [HSA tryptic peptide residues 185-198 …] the Per cent adsorbed (per cent adsorbed, printed as fraction) was -0.37. With C(Cam)C(Cam)TESLVNR [HSA tryptic peptide residues 500-508 …] the Per cent adsorbed (per cent adsorbed, printed as fraction) was 0.26. AAFTEC(Cam)C(Cam)QAADK [HSA tryptic peptide residues 187-198 …] gave a Per cent adsorbed (per cent adsorbed, printed as fraction) of 0.29. LCTVATLR (Cys alkylated with iodoacetamide (from dHSA)) [HSA tryptic peptide residues 098-105 LCTVATLR] showed a Per cent adsorbed (per cent adsorbed, printed as fraction) of 0.35. SLHTLFGDK [HSA tryptic peptide residues 089-097 …] was tested, and the Per cent adsorbed (per cent adsorbed, printed as fraction) was 0.36. RPC(Cam)FSALEVDETYVPK [HSA tryptic peptide residues 509-524 …] was tested, and the Per cent adsorbed (per cent adsorbed, printed as fraction) was 0.42. DDNPNLPR [HSA tryptic peptide residues 131-138 DDNPNLPR] gave a Per cent adsorbed (per cent adsorbed, printed as fraction) of 0.01. With FQNALLVR [HSA tryptic peptide residues 427-434 FQNALLVR] the Per cent adsorbed (per cent adsorbed, printed as fraction) was 0.41. Molecule ETYGEMADC(Cam)C(Cam)AK [HSA tryptic peptide residues 106-117 …] has a Per cent adsorbed (per cent adsorbed, printed as fraction) of -0.08. NECFLQHK (Cys alkylated with iodoacetamide (from dHSA)) [HSA tryptic peptide residues 123-130 NECFLQHK] was tested, and the Per cent adsorbed (per cent adsorbed, printed as fraction) was 0.22. C(Cam)C(Cam)AAADPHEC(Cam)YAK [HSA tryptic peptide residues 384-396 …] showed a Per cent adsorbed (per cent adsorbed, printed as fraction) of 0.32. Work on YLYEIAR [HSA tryptic peptide residues 162-168 YLYEIAR] yielded a Per cent adsorbed (per cent adsorbed, printed as fraction) of 0.34. LDELRDEGK [HSA tryptic peptide residues 206-214 …] was tested, and the Per cent adsorbed (per cent adsorbed, printed as fraction) was 0.02. AVMDDFAAFVEK [HSA tryptic peptide residues 570-581 …] was tested, and the Per cent adsorbed (per cent adsorbed, printed as fraction) was 0.23. With KYLYEIAR [HSA tryptic peptide residues 161-168 KYLYEIAR] the Per cent adsorbed (per cent adsorbed, printed as fraction) was 0.71. KVFDEFKPLVEEPQNLIKQ [HSA tryptic peptide residues 397-413 …] was tested, and the Per cent adsorbed (per cent adsorbed, printed as fraction) was 0.6. Molecule LVNEVTEFAK [HSA tryptic peptide residues 066-075 …] has a Per cent adsorbed (per cent adsorbed, printed as fraction) of -0.02. With VHTEC(Cam)C(Cam)HGDLLEC(Cam)ADDR [HSA tryptic peptide residues 265-281 …] the Per cent adsorbed (per cent adsorbed, printed as fraction) was 0.13. With YIC(Cam)ENQDSISSK [HSA tryptic peptide residues 287-298 …] the Per cent adsorbed (per cent adsorbed, printed as fraction) was 0.03. In the case of QNC(Cam)ELFEQLGEYK [HSA tryptic peptide residues 414-426 …], the Per cent adsorbed (per cent adsorbed, printed as fraction) is reported as 0.2. For FKDLGEENFK [HSA tryptic peptide residues 35-44 …], the Per cent adsorbed (per cent adsorbed, printed as fraction) was 0.08. LKEC(Cam)C(Cam)EKPLLEK [HSA tryptic peptide residues 299-310 …] showed a Per cent adsorbed (per cent adsorbed, printed as fraction) of 0.36.

Source: US20200048331A1 (CANIMGUIDE THERAPEUTICS, published 2020)
